Experimental data as given in US20070192880.

What was measured:
ERα (Homo sapiens) = biological target: T1, ERα (Homo sapiens) (UniProt P03372); test: EMSA; conditions: EMSA competition
T1 sequence: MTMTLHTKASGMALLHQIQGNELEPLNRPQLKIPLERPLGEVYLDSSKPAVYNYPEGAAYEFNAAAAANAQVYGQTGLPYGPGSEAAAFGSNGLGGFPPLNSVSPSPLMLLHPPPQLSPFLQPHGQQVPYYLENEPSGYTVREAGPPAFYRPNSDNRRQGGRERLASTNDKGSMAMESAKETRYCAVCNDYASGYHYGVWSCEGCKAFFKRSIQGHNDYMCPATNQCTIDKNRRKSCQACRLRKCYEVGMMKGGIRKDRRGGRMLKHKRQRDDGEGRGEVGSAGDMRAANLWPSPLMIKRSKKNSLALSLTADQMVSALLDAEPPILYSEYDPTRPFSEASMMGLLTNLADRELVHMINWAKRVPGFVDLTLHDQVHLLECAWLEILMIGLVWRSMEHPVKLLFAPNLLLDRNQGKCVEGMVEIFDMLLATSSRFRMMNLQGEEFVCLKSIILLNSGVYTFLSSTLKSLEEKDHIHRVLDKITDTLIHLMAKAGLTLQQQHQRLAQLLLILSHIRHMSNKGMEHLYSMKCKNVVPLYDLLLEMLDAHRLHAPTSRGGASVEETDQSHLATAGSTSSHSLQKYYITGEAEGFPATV

[1] = biological target: T2, CDC ERE binding module (ERα C domain - D hinge - C domain fusion) (UniProt P03372); test: EMSA; conditions: apparent Kd from EMSA competition
T2 sequence: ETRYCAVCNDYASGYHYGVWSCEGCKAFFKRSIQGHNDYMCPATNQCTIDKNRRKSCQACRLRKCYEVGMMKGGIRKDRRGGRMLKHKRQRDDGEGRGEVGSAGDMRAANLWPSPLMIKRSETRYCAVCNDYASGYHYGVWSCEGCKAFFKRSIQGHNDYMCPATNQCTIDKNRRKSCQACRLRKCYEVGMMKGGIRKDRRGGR

ERα (expressed in cells) = ERα (expressed in cells) (UniProt P03372); test: cell_activity; conditions: COS-1, E2; about 2-fold without ligand
CDC-KRAB = biological target: T3, CDC-KRAB (UniProt P03372); test: cell_activity; conditions: COS-1 and CHO; no effect without ERE
T3 sequence: T2 sequence

CDC-SID = biological target: T4, CDC-SID (UniProt P03372); test: cell_activity
T4 sequence: T2 sequence

KRAB-CDC = biological target: T5, KRAB-CDC (UniProt P03372); test: cell_activity; conditions: COS-1 and CHO; no effect without ERE
T5 sequence: T2 sequence

SID-CDC-KRAB = biological target: T6, SID-CDC-KRAB (UniProt P03372); test: cell_activity; conditions: COS-1
T6 sequence: T2 sequence

CDC (expressed in cells) = biological target: T7, CDC (expressed in cells) (UniProt P03372); test: cell_activity; conditions: COS-1; little effect in CHO
T7 sequence: T2 sequence

SID-CDC = biological target: T8, SID-CDC (UniProt P03372); test: cell_activity
T8 sequence: T2 sequence

KRAB-CDC-SID = biological target: T9, KRAB-CDC-SID (UniProt P03372); test: cell_activity; conditions: COS-1
T9 sequence: T2 sequence

SID-CDC-SID = test: cell_activity; conditions: COS-1; given as decreased about 60% of that observed with parent vector
[2] = COS-1 and CHO, no effect without ERE
[3] = COS-1, given as decreased about 60% of that observed with parent vector

Sequence of SID-CDC-SID (chain, as listed by the source): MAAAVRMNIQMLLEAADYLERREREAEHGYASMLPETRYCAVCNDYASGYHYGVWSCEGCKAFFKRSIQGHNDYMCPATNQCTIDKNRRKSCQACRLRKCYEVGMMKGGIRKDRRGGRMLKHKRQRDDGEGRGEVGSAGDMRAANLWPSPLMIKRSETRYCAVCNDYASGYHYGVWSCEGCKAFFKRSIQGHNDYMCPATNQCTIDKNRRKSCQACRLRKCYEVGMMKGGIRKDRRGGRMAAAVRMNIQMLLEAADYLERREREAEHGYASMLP

Q: Which results are given for “GGTCANNNTGACC (double strand) [consensus ERE]”?
A: Kd (ERα (Homo sapiens)): 260 pM; Kd [1]: 1490 pM

Q: Which activity (ERα (expressed in cells)) does the source give for complement C3 promoter here?
A: The activity was 11 fold.

Q: How did the activity (CDC-KRAB) turn out when “GGTCANNNTGACC (double strand) [SV40 enhancer/promoter with one consensus ERE]” was run?
A: The activity was 80 % repression.

Q: And the activity (CDC-SID; [2])?
A: The activity was 80 % repression.

Q: And the activity (KRAB-CDC)?
A: The activity was 50 % repression.

Q: And the activity (SID-CDC-KRAB)?
A: Its activity is 95 % repression.

Q: What about the activity (CDC (expressed in cells)) of the same substance?
A: The activity was 50 % repression.

Q: And the activity (SID-CDC; [2])?
A: The activity was 50 % repression.

Q: What about the activity (KRAB-CDC-SID) of the same substance?
A: Its activity is 95 % repression.

Q: What does the source list for cathepsin D promoter?
A: activity (CDC-SID; [3]): 60 % repression; activity (SID-CDC-SID): 60 % repression; activity (SID-CDC; [3]): 60 % repression
